Data on 4 molecules can be found in PMC11842806, “Molecular basis of foreign DNA recognition by BREX anti-phage immunity system” (Nature Communications, 2025).

This data set deals with T1, BrxX G785T/N823S (TRD variant) (Escherichia coli HS, UniProt P0DUF9 1-1205, G785T;N823S).
T1 sequence: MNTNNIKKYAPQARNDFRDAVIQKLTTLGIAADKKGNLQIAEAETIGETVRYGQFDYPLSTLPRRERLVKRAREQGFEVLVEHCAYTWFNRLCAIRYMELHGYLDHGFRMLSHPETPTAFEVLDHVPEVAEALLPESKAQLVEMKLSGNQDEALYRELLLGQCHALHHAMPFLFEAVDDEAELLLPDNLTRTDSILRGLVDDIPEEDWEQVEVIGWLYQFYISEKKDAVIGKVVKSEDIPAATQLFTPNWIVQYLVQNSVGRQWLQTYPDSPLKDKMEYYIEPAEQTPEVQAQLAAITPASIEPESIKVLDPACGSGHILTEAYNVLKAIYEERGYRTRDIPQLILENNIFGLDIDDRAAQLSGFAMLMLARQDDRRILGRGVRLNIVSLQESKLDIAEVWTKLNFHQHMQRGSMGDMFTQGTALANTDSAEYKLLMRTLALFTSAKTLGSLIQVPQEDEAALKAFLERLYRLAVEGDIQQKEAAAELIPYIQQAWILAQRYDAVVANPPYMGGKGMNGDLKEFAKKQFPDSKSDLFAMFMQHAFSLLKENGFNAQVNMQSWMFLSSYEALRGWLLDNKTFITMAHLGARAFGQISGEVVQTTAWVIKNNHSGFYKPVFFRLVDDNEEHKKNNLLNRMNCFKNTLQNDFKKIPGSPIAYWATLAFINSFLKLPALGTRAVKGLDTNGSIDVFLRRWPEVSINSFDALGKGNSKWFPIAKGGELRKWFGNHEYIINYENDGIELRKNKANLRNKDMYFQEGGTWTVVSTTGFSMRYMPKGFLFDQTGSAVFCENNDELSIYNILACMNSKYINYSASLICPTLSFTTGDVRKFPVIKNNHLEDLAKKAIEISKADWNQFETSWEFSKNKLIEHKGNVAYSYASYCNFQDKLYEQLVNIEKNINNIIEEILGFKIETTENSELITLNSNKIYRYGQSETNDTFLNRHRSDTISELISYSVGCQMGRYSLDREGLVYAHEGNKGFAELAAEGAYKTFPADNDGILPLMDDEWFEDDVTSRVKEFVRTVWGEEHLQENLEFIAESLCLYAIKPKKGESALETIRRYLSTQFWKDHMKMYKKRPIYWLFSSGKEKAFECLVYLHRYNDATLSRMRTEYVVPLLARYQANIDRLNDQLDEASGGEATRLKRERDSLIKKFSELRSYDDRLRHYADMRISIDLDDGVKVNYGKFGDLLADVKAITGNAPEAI
Briefly: EMSA; decreased affinity; EMSA: 20 nM Cy5-DNA, 0.5x TBE pH 8.0, 35 mM NaCl, 5% glycerol, +/-0.5 mM SAM or SAH, 30 min, room temperature; BLI: 20 mM Tris-HCl pH 8.0, 100 mM NaCl, 0.05 mg/mL BSA, 0.02% Tween-20, +/-0.5 mM SAM, 30 C. The following applies: protein: recombinant; tags: N-His6; label: 5'-Cy5 on strand 1; blunt.

B1: 40 bp BREX (dsDNA)
DNA 1: TCAGTAGTCAAGTCAGTGGTAAGGTCAGGACAGGAGTCAG
DNA 2: CTGACTCCTGTCCTGACCTTACCACTGACTTGACTACTGA
On to B1, for which the binding result is reported as “binds”.

B2: 40 bp BREX 4G (dsDNA)
DNA 1: TCAGTAGTCAAGTCAGTGGTGAGGTCAGGACAGGAGTCAG
DNA 2: CTGACTCCTGTCCTGACCTCACCACTGACTTGACTACTGA
Consider B2, for which the binding result is on record as “binds”.

B3: 40 bp BREX 4C (dsDNA)
DNA 1: TCAGTAGTCAAGTCAGTGGTCAGGTCAGGACAGGAGTCAG
DNA 2: CTGACTCCTGTCCTGACCTGACCACTGACTTGACTACTGA
Turning to B3, the binding result was “binds”.

B4: 40 bp BREX 4T (dsDNA)
DNA 1: TCAGTAGTCAAGTCAGTGGTTAGGTCAGGACAGGAGTCAG
DNA 2: CTGACTCCTGTCCTGACCTAACCACTGACTTGACTACTGA
Turning to B4, the binding result is “binds”.
